Measured values: PMC3897949

Target: PCAF HAT domain (amino acids 493-658), His-tagged (human), Q92831
Assay: SEC-MALS; protein at 2, 6 and 20 mg/ml on a size exclusion column (WTC-010S5); 50 mM phosphate buffer pH 7.0, 150 mM NaCl, 35°C; monomer to dimer
Conditions: remark: other sources report otherwise

stoichiometry N: 2
B1: PCAF HAT domain (amino acids 493-658), His-tagged, Q92831 493-658 (domain or fragment)
chain: VIEFHVVGNSLNQKPNKKILMWLVGLQNVFSHQLPRMPKEYITRLVFDPKHKTLALIKDGRVIGGICFRMFPSQGFTEIVFCAVTSNEQVKGYGTHLMNHLKEYHIKHDILNFLTYADEYAIGYFKKQGFSKEIKIPKTKYVGYIKDYEGATLMGCELNPRIPYTE
